Key:
Type in all cases: biochemical
[1] = In vitro kinetics (Km, Vmax), acceptor substrate LNT; conditions: 30° C., pH7.5, protein extract
Protocol: (§1) To rank the best performing sialyltransferases, their Km values for donor and acceptor substrates were determined in vitro. Escherichia coli BL21(DE3) strain #287 was used for overproduction of the enzymes. Cells were incubated in 100 ml 2YT medium in shaking flasks supplemented with 100 μg m^−1 ampicillin at 30° C. until an OD600 of 0.3 was reached. Then, 0.3 mM IPTG was added and the incubation was continued for 12 to 16 hours. Cells were harvested by centrifugation and mechanically disrupted in a defined volume of 50 mM Tris-HCl pH7.5 using glass beads. The protein extract was kept on ice until the assay started. The in vitro assay was carried out in a total volume of 50 μl including 50 mM Tris-HCl pH7.5, 5 mM MgCl2 and varying concentrations of CMP-Neu5Ac (0.05-30 mM) as well as of lactose or LNT (0.1-50 mM). The assay started with the addition of 35 to 750 μg protein extract. After 1 to 10 minutes of incubation at 30° C., the assay was inactivated at 95° C. for 5 minutes. Product formation was determined by mass spectrometry. Data were evaluated using the enzyme kinetic module of SigmaPlot v12.5 to calculate Km and Vmax.
(§2) Their kinetic parameters for CMP-Neu5Ac and LNT as well as lactose are depicted in Table 6.

[2] = In vitro sialylation of LNT by protein extracts, LST-a/-b quantified by LC-MS/MS; conditions: for Ranking in the screening for sialylation of LNT: in words
Method in brief: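 E. coli BL21(DE3) crude extracts overexpressing sialyltransferases (IPTG 0.3 mM, 12–16 h at 30 °C) incubated 16 h with 5 mM LNT and 10 mM CMP-Neu5Ac in 50 mM Tris-HCl pH 7.5, 5 mM MgCl2. LST-a and LST-b measured by HILIC LC-MS/MS, MRM in ESI negative mode, against commercial standards.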

[3] = In vitro kinetics (Km, Vmax), acceptor substrate lactose; conditions: 30° C., pH7.5, protein extract
Protocol: as §1, §2

[4] = In vitro kinetics (Km, Vmax), donor substrate CMP-Neu5Ac; conditions: 30° C., pH7.5, protein extract
Protocol: as §1, §2

[5] = 5 mM LNT, 10 mM CMP-Neu5Ac, 16 hours, LC-MS/MS, relative quantity, n.d.: not detectable

Row | Molecule | Km [1] [mM] | Vmax LNT [1] [µmol/min] | Relative efficacy of sialyltransferases regarding in-vitro production of sialyllacto-N-tetraoses: LST-b [2, 5] | Ranking in the screening for sialylation of LNT [2] | Km [3] [mM] | Vmax Lactose [3] [µmol/min] | Km [4] [mM] | Vmax CMP-Neu5Ac [4] [µmol/min] | Relative efficacy of sialyltransferases regarding in-vitro production of sialyllacto-N-tetraoses: LST-a [2, 5]
1 | SiaT19: sialyltransferase of Photobacterium leiognathi JT-SHIZ-145, acc. BAF91416, SEQ ID NO: 30 (protein, listed as Photobacterium leiognathi) MNDNQNTVDVVVSTVNDNVIENNTYQVKPIDTPTTFDSYSWIQTCGTPILKDDEKYSLSFDFVAPELDQDEKFCFEFTGDVDGKRYVTQTNLTVVAPTLEVYVDHASLPSLQQLMKIIQQKNEYSQNERFISWGRIRLTEDNAEKLNAHIYPLAGNNTSQELVDAVIDYADSKNRLNLELNTNTGHSFRNIAPILRATSSKNNILISNINLYDDGSAEYVSLYNWKDTDNKSQKLSDSFLVLKDYLNGISSEKPNGIYSIYNWHQLYHSSYYFLRKDYLTVETKLHDLREYLGGSLKQMSWDTFSQLSKGDKELFLNIVGFDQEKLQQEYQQSELPNFVFTGTTTWAGGETKEYYAQQQVNVVNNAINETSPYYLGREHDLFFKGHPRGGIINDIILGSFNNMIDIPAKVSFEVLMMTGMLPDTVGGIASSLYFSIPAEKVSFIVFTSSDTITDREDALKSPLVQVMMTLGIVKEKDVLFWC | 2.9 | 0.04 | 157 | sialylate LNT most efficiently among the tested α-2,6-sialyltransferases | 3 | 0.09 | 1.1 | 0.09 | 
2 | SiaT9: sialyltransferase of Vibrio sp. JT-FAJ-16, acc. BAF91160, SEQ ID NO: 2 (protein, listed as Vibrio sp.) MNNDNSTTTNNNAIEIYVDRATLPTIQQMTKIVSQKTSNKKLISWSRYPITDKSLLKKINAEFFKEQFELTESLKNIILSENIDNLIIHGNTLWSIDVVDIIKEVNLLGKNIPIELHFYDDGSAEYVRIYEFSKLPESEQKYKTSLSKNNIKFSIDGTDSFKNTIENIYGFSQLYPTTYHMLRADIFDTTLKINPLRELLSNNIKQMKWDYFKDFNYKQKDIFYSLTNFNPKEIQEDFNKNSNKNFIFIGSNSATATAEEQINIISEAKKENSSIITNSISDYDLFFKGHPSATFNEQIINAHDMIEINNKIPFEALIMTGILPDAVGGMGSSVFFSIPKEVKNKFVFYKSGTDIENNSLIQVMLKLNLINRDNIKLISDI | 2.9 | 0.15 |  | best performing α-2,3-sialyltransferases for LST-a production | 2.9 | 0.18 | 0.96 | 0.16 | 8.39 × 10^3

Source: patent US12692524B2, “Sialyltransferases and their use in producing sialylated oligosaccharides” (Chr. Hansen A/S, priority 2017, dated 2026)
